Results reported in patent US20090130692A1.

Target: bovine pancreatic trypsin (bovine) (UniProt P00760)
Test: inhibition of bovine trypsin, substrate Boc-Leu-Gly-Arg-pNA, tight-binding fit (Morrison); apparent Ki (Kiapp)

Sequence of bovine pancreatic trypsin (bovine) (P00760 24-246): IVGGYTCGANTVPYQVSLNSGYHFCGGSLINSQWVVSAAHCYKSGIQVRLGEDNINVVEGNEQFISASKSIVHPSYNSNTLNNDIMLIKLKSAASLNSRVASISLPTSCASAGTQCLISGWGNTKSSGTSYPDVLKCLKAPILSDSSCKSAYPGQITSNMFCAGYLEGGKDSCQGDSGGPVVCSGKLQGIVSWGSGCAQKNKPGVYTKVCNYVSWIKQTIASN

Substance	Ki [nM]
barnase′-EETI-II fusion protein (from UniProt P00648 48-157)	9
barnase′-McoEeTI fusion protein (from UniProt P00648 48-157)	71
